T1: human Protein S (human, UniProt P07225 42-676)
T1 construct: also called ProS; ProS1
T1 sequence: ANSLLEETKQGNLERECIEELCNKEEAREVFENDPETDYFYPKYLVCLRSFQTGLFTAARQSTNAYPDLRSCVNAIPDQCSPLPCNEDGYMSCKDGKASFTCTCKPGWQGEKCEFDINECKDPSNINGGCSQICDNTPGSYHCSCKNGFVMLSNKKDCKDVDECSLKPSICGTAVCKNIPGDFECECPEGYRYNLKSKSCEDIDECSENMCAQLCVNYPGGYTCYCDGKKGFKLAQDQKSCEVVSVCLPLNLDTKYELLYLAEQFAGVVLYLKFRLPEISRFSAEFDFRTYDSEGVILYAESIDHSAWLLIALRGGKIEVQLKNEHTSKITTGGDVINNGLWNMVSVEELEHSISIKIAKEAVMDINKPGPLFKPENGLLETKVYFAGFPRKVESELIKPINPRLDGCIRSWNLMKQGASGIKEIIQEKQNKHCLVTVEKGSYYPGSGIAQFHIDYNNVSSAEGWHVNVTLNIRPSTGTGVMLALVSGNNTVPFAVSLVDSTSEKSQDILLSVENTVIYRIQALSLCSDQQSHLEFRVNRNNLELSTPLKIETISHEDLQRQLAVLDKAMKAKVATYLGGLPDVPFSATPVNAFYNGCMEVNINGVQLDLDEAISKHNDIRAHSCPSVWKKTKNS

T2: recombinant heavy chain Protein S (amino acids 42-296) (human, UniProt P07225 42-296)
T2 construct: Expressed and purified from HEK293 cells; No tags are stated; also called heavy chain of Protein S; Protein S heavy chain
T2 sequence: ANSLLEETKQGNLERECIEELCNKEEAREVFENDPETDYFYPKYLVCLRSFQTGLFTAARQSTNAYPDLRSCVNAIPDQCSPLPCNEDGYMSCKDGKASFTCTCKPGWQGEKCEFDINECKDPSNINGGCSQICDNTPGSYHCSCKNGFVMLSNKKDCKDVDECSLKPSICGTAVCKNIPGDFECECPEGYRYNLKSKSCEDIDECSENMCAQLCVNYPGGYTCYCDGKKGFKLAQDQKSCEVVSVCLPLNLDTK


Legend:
human Protein S [1] = biological target: T1, human Protein S; experiment: BLI, Octet; antibody on anti-human Fc capture probes, Protein S 7.81-500 nM, 4 mM calcium chloride
Procedure: (§1) Binding affinities of the Protein S antibodies provided herein were also further characterized using the Octet System (Sartorius). The binding of each antibody to both human and cynomolgus monkey (“cyno”) Protein S was determined. The human Fc antibodies were immobilized onto anti-human Fc capture probes by placing the probes into 10 µg/ml antibody solution in 10 mg/ml bovine serum albumin, 20 mM Tris pH 7.0, 150 mM NaCl, and 4 mM calcium chloride. […] Next, the probes were placed into buffer and the dissociation rates were measured.

[2] = biological target: T3, cynomolgus monkey Protein S (cynomolgus monkey); experiment: as above
T3 construct: also called cyno Protein S
Procedure: as §1

human Protein S [3] = biological target: T1, human Protein S; experiment: SPR, Biacore X100; antibody captured on anti-human IgG (Fc), purified Protein S 2-128 nM as analyte, HBS-EP + 5 mM CaCl2, 1:1 model
Procedure: Binding interaction analysis was obtained by Surface Plasmon Resonance in a Biacore X100 instrument. The human anti-IgG (Fc) antibody was immobilized to the carboxymethylated dextran membrane on the sensor chip surface (CM5) via the free amine method for a contact time of 420 seconds. Human anti-IgG antibody at 25 µg/mL in 0.15 M NaCl was immobilized to 9,785 RU in 10 mM sodium acetate pH 5.0. Each tested monoclonal antibody was captured at a fixed concentration (0.25 µg/mL) with immobilized human anti-IgG antibody.
The following experimental conditions were used: purified Protein S was injected at concentrations: 2-128 nM, 1:2-fold dilution. Dilution and running buffer were as follows: Hbs-EP + 5 mM CaCl₂. Regeneration was obtained by 3 M MgCl₂. Binding constants (ka, kd, and KD) were determined using the Biacore X100 evaluation software, assuming a 1:1 interaction of Protein S and the tested monoclonal antibody under investigation.

human Protein S [4] = biological target: T1, human Protein S; experiment: ELISA, plate coated with human Protein S, 1 µg/ml antibody, 1 mM calcium chloride
Procedure: (§2) Calcium dependence of binding was determined using an ELISA based method. Briefly, high binding ELISA plates were coated with human Protein S. Then, buffer containing 1 µg/ml of antibody was applied to the well with either buffer containing 1 mM EDTA or 1 mM calcium chloride. If the level of binding of Protein S was reduced ([…] of the absorbance observed in the presence of calcium) when EDTA was added, it was concluded that the binding was calcium-dependent.

human Protein S [5] = biological target: T1, human Protein S; experiment: ELISA, plate coated with human Protein S, 1 µg/ml antibody, 1 mM EDTA
Procedure: as §2

[6] = biological target: T2, recombinant heavy chain Protein S …; experiment: ELISA on plate-coated recombinant Protein S heavy chain (aa 42-296), 1 mM calcium chloride
Procedure: (§3) Binding to the heavy chain of Protein S was determined using an ELISA based method. Briefly, high binding ELISA plates were coated with recombinant heavy chain Protein S expressed and purified from HEK293 cells. The “heavy chain” of Protein S represents a fragment of Protein S spanning amino acids 42-296. The coated plate was blocked with 1% casein solution. Then, buffer containing 1 µg/ml of antibody to be tested was applied to the well with buffer containing 1 mM calcium chloride.

[7] = biological target: T2, recombinant heavy chain Protein S …; experiment: ELISA, plate coated with recombinant Protein S heavy chain (aa 42-296), 1 µg/ml antibody, 1 mM calcium chloride
Procedure: as §3

Kd (human Protein S [1]) | koff (human Protein S [1]) | kon (human Protein S [1]) | Kd [2] | koff [2] | kon [2] | Kd (human Protein S [3]) | koff (human Protein S [3]) | kon (human Protein S [3]) | Binding to Protein S in CaCl2 (OD) (human Protein S [4]) | Binding to Protein S in EDTA (OD) (human Protein S [5]) | binding result [6] | Binding to heavy chain (OD) [7] | Binder
7.8 nM | 0.000493 s⁻¹ | 63300 M⁻¹ s⁻¹ | 4.19 nM | 0.000283 s⁻¹ | 67500 M⁻¹ s⁻¹ | 28 nM | 0.00227 s⁻¹ | 81200 M⁻¹ s⁻¹ |  |  |  |  | Antibody 5 (antibody, V domains shown, also called Protein S Antibody with Human Fc; Combination 8) VH: QVQLVQSGAEVKKPGASVKVSCKASGYTFTSYDINWVRQATGQGLEWMGWVNPNSDNIGYAQKFQGRVTMTRNTSISTAYMELSSLRSEDSAVYYCVRGAAAAWDAFAIWGQGTMVTVSS VL: EIVMTQSPATLSVSPGERATLSCRASQSVGSNLAWYQQKPGQAPRLLIYGASTRATGGPARFSGSGSGTEFTLTISSLQSEDFAVYYCQQYNNWPLTFGGGTKVEIK
 |  |  |  |  |  |  |  |  | 0.54 OD | 0.39 OD | no binding | 0.07 OD | Antibody 17 (antibody, V domains shown, Human variable region with a rat Fc domain; also called Protein S Antibody with Rat Fc; parental rat antibody of Antibody 5) VH: QVQLVQSGAEVKKPGASVKVSCKASGYTFTSYDINWVRQATGQGLEWMGWVNPNSDNIGYAQKFQGRVTMTRNTSISTAYMELSSLRSEDSAVYYCVRGAAAAWDAFAIWGQGTMVTVSS VL: EIVMTQSPATLSVSPGERATLSCRASQSVGSNLAWYQQKPGQAPRLLIYGASTRATGGPARFSGSGSGTEFTLTISSLQSEDFAVYYCQQYNNWPLTFGGGTKVEIK
 |  |  |  |  |  |  |  |  | 0.2 OD | 0.07 OD | no binding | 0.06 OD | Antibody 22 (antibody, V domains shown, Human variable region with a rat Fc domain; also called Protein S Antibody with Rat Fc; parental rat antibody of Antibody 10) VH: EVQLLESGGGLVQPGGSLRLSCAASRFSFSSYAMSWVRQAPGKGLEWVSAISDSGSNTYYADSVKGLFTISRDNSKNTLYLQMNSLRAEDTAVYYCAKNYESGGYYTFFDYWGQGTLVTVST VL: EIVMTQSPATLSVFPGERATLSCRASQSVRSNLAWHQQKLGQAPRLLLYGASTRATGIPARFSGSGSGTEFTLAISSLQSEDFAVYYCQQYNSWPFTFGGGTKVGIK

Source: patent US20230174672A1 (VEGA THERAPEUTICS, published 2023)
